Measured values taken from the supplement of paper PMC11908140.

B1: library; numbered along this chain (parent)
chain: MRKPRAAVGSGHRKQAASQEGRQKHAKNNSQAKPSACDGLARQPEEVVLQASVSSYHLFRDVAEVTAFRGSLLSWYDQEKRDLPWRRRAEDEMDLDRRAYAVWVSEVMLQQTQVATVINYYTGWMQKWPTLQDLASASLEEVNQLWAGLGYYSRGRRLQEGARKVVEELGGHMPRTAETLQQLLPGVGRYTAGAIASIAFGQATGVVDGNVARVLCRVRAIGADPSSTLVSQQLWGLAQQLVDPARPGDFNQAAMELGATVCTPQRPLCSQCPVESLCRARQRVEQEQLLASGSLSGSPDVEECAPNTGQCHLCLPPSEPWDQTLGVVNFPRKASRKPPREESSATCVLEQPGALGAQILLVQRPNSGLLAGLWEFPSVTWEPSEQLQRKALLQELQRWAGPLPATHLRHLGEVVHTFSHIKLTYQVYGLALEGQTPVTTVPPGARWLTQEEFHTAAVSTAMKKVFRVYQGQQPGTCMGSKRSQVSSPCSRKKPRMGQQVLDNFFRSHISTDAHSLNSAAQ

Variants of: B1
Assay: 8OG:A repair function score (normalized; synonymous = 0, nonsense = -1) (normalized log-likelihood score); higher = more repair activity (WT-like)
Details: with 8OG:A DNA repair reporter (GFP) in HEK-293 MUTYH KO cells
In short: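 MUTYH knockout HEK-293 cells carrying lentiviral MUTYH cDNA NNN codon-scan libraries were grown with 10 pg/ml doxycycline and co-transfected with mCherry and a GFP reporter of 8OG:A repair. Viable mCherry+ cells were sorted at 72 h into GFP+ (repair) and GFP− bins, with three replicates per tile, and tile amplicons were sequenced. Rosace fitness scores for each tile were turned into a normalized repair function score anchored on the synonymous and nonsense distributions. Synonymous medians were set to 0 and nonsense medians to -1, and variants below 300 counts per million at the start were dropped.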

8OG:A repair function score of substitutions, site by site:
N210: I -1 | E -0.997 | H -0.833 | P -0.658 | K -1.04 | M -0.923 | R -1.03 | A -0.876 | V -0.927 | L -0.937 | D -1.03 | F -1 | C -0.854 | S -1.03 | Y -1 | G -0.962 | T -1.03 | Q -0.95 | W -1.01
L215: V -0.573 | A -0.788 | N -0.967 | I -0.331 | S -0.957 | K -1.02 | E -0.98 | G -0.867 | T -0.86 | C -0.768 | Y -0.0538 | M -0.129 | P -1.03 | D -0.968 | W -0.704 | F -0.325 | H -0.901 | R -1.02 | Q -0.871
A212: R 0.0203 | W -0.596 | V -0.0975 | I -0.333 | D -0.814 | F -0.426 | Q -0.0874 | C -0.00168 | L -0.264 | E 0.196 | G -0.254 | P -0.961 | K -0.0378 | S -0.131 | M -0.344 | N -0.24 | Y -0.62 | H -0.341 | T -0.0386
D208: H -1.01 | R -1.03 | G -1 | K -0.994 | L -1.03 | P -1.04 | C -1.02 | S -0.987 | Y -1.01 | W -1.02 | I -1.02 | V -0.996 | F -1.04 | Q -1.01 | A -1.04 | M -0.974 | E -0.991 | N -0.984 | T -1.03
C216: G -0.663 | E -0.808 | F -0.905 | A -0.252 | D -0.949
V207: W -0.834 | M -0.495 | Q -0.868 | S -0.875 | T -0.785 | Y -0.858 | L -0.375 | P -1.01 | K -0.909 | R -0.947 | N -0.883
R213: C -1.03 | D -1.01 | L -1.01 | N -0.963 | M -1.04 | Y -0.997 | E -1.03 | S -1.01 | G -1.01 | W -1 | Q -1.02 | A -1.02 | V -1.01 | H -1.03 | I -0.997 | F -1.01 | T -1.01 | K -1 | P -1.03
V211: E -0.951 | I -0.0557 | F -0.4 | R -1.02 | C -0.265 | D -0.988 | K -1 | L -0.586 | G -0.791 | T -0.428 | M -0.251 | H -0.617 | A -0.477 | Y -0.329 | W -0.594 | P -1.02 | S -0.531 | Q -0.837 | N -0.806
V214: F -0.287 | P -1.01 | K -0.957 | D -1.02 | L -0.0688 | W -0.258 | M -0.207 | Y -0.782 | T -0.495 | H -0.795 | E -0.927 | I -0.231 | A -0.504 | S -0.707 | C -0.56 | R -1.01 | N -0.833 | G -0.9 | Q -0.911
G209: V -0.00522 | Q -0.48 | T -0.207 | F -0.839 | Y -0.757 | N 0.0546 | R -0.364 | L -0.534 | D -0.851 | P -0.887 | C 0.162 | W -0.876 | A -0.0943 | K -0.788 | E -0.837 | I -0.359 | S 0.0281 | H -0.659
